From paper PMC3030368

T1: Nab3 RRM (Saccharomyces cerevisiae, UniProt P38996 321-415)
T1 sequence: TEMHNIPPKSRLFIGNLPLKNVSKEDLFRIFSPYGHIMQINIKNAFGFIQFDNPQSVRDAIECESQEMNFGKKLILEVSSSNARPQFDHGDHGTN

T2: Nrd1 RRM (UniProt P53617 340-410)
T2 sequence: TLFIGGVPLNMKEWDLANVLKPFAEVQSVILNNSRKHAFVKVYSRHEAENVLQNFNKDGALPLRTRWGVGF


Tests used:
[1] = target: T1, Nab3 RRM; experiment: fluorescence anisotropy
[2] = target: T2, Nrd1 RRM; experiment: fluorescence anisotropy

Row | Binder | binding signal [1] | Kd [2] [µM]
1 | UCUU (ssRNA) [UCUU (FA)] | ~10 fold weaker than snR47 (1 order of magnitude; Kd only in figure) | –
2 | GUAA (ssRNA) | > 6 fold lower affinity than UCUU | 66 ± 1
